Measured values: ChEMBL document CHEMBL2074015, “Effect of ionization on the variable uptake of valacyclovir via the human intestinal peptide transporter (hPepT1) in CHO cells” (Biopharm Drug Dispos, 2000)

Experiments:
Details in all cases: CHO
[1] = substrate: CC(C)[C@H](N)C(=O)OCCOCn1cnc2c(=O)nc(N)[nH]c21
Description: TP_TRANSPORTER: uptake (pH 7.9) in PEPT1-expressing CHO cells

[2] = substrate: CC(C)[C@H](N)C(=O)OCCOCn1cnc2c(=O)nc(N)[nH]c21; remark: listed apart in the source
Description: TP_TRANSPORTER: uptake (pH 7.5) in PEPT1-expressing CHO cells

[3] = substrate: CC(C)[C@H](N)C(=O)OCCOCn1cnc2c(=O)nc(N)[nH]c21; remark: listed apart in the source
Description: TP_TRANSPORTER: uptake (pH 6.8) in PEPT1-expressing CHO cells

[4] = substrate: CC(C)[C@H](N)C(=O)OCCOCn1cnc2c(=O)nc(N)[nH]c21; remark: listed apart in the source
Description: TP_TRANSPORTER: uptake (pH 6.2) in PEPT1-expressing CHO cells

[5] = substrate: CC(C)[C@H](N)C(=O)OCCOCn1cnc2c(=O)nc(N)[nH]c21; remark: listed apart in the source
Description: TP_TRANSPORTER: uptake (pH 5.5) in PEPT1-expressing CHO cells

B1: Solute carrier family 15 member 1 (Homo sapiens), P46059 (protein)
chain: MGMSKSHSFFGYPLSIFFIVVNEFCERFSYYGMRAILILYFTNFISWDDNLSTAIYHTFVALCYLTPILGALIADSWLGKFKTIVSLSIVYTIGQAVTSVSSINDLTDHNHDGTPDSLPVHVVLSLIGLALIALGTGGIKPCVSAFGGDQFEEGQEKQRNRFFSIFYLAINAGSLLSTIITPMLRVQQCGIHSKQACYPLAFGVPAALMAVALIVFVLGSGMYKKFKPQGNIMGKVAKCIGFAIKNRFRHRSKAFPKREHWLDWAKEKYDERLISQIKMVTRVMFLYIPLPMFWALFDQQGSRWTLQATTMSGKIGALEIQPDQMQTVNAILIVIMVPIFDAVLYPLIAKCGFNFTSLKKMAVGMVLASMAFVVAAIVQVEIDKTLPVFPKGNEVQIKVLNIGNNTMNISLPGEMVTLGPMSQTNAFMTFDVNKLTRINISSPGSPVTAVTDDFKQGQRHTLLVWAPNHYQVVKDGLNQKPEKGENGIRFVNTFNELITITMSGKVYANISSYNASTYQFFPSGIKGFTISSTEIPPQCQPNFNTFYLEFGSAYTYIVQRKNDSCPEVKVFEDISANTVNMALQIPQYFLLTCGEVVFSVTGLEFSYSQAPSNMKSVLQAGWLLTVAVGNIIVLIVAGAGQFSKQWAEYILFAALLLVVCVIFAIMARFYTYINPAEIEAQFDEDEKKNRLEKSNPYFMSGANSQKQM
- Km [1]: 2.2 mM
- Km [2]: 2.7 mM
- Km [3]: 5.4 mM
- Km [4]: 6.6 mM
- Km [5]: 7.4 mM
